Source: the DeepSol protein solubility set

Assay: soluble on expression in E. coli; label from the status in PepcDB or PDB records

Row | Sequence | soluble on expression in E. coli
1 | MGADLRYNMEITLEEAFAGKTAQIRVPTSITCDVCSGSGAKPGTQPKTCATCQGSGRVRAAQGFFSVERTCPTCHGRGQTISDPCGKCHGQGRVTEERSLSVNIPSGIEDGTRIRLQGEGEAGMRGGPAGDLYIFLSVRPHEFFQRDGADLYCTVPISMTTAALGGTFDVTTLDGTKSRVTVPEGTQPGKQFRLKGKGMPVLRSAQTGDLYIQIQIETPQKLSKRQRELLQEFEQLSSKENNPLEHHHHHH | soluble
2 | MGAIEDIYEDLETDVPEEEFREAVEEKVEQMGGLADEETAAMLLAHELNENEVNAIADIEPGMDEVKFLAKVMAIGDLKTFERDDEDEDGRVINVEAADESGSLRLAFWDGQAVDIDEGKLEVGDVLRVKGRPKDGYNGLEVSVDKAEPDEDATIDVEPGAGSSIDALTMGQSDVTLRGLVLDTDSIRTFDRDDGSEGRVSNLTLGDETGRIRVTLWDDRADRADELDAGAAVEIIDGYVRERDGSLELHVGDQGAVDEVEDDVAFEPDADPIAEVELEETADIAGVVRSADPKRTFDRDDGSEGQVRNVRIQDATGDIRVALWGDKADKDIAPGDEVLAADVEIQDGWQDDKEASASWNSTIVVLDDGADLATGGAGGGASAETTDAEHAGLSSFGDEGDDTDADSSGNEAAAVSAGTGDTSPDGGAQSAGQQVEFTGTVVQTGDPVVLDDGEQTMSVETGERVQLGQEITVRGELRDDRLHAEDVFLEHHHHHH | not soluble
3 | MGANTKYKDSVFSLLFSDPDLLRELYCALEGVSLPADIPVTINTLRDALFMGMINDISFEIGGKLIILIEHQSTINPNMALRLLMYIARVYEKLIGDRNIYSSRLIHIPRPEFYVLYNGVTPYPDRTTLKLSDMFEKAGAFGLPEKGSAALELEVNVININEGKNEVIAKKCKTLAGYSAFVAKVRAFEKEIGDKTEAMKQAVRYCRDHDILKEFLEQNGTEVMNMLINEWNIEDAKKVWYEDGLSQGLEKGLEKGREEGREEESFSIAQNLVKLGLPIETIISATQLDPDKVKALYQQ | soluble
4 | MGARGRMAASKGAVMSLLLDAYQKRDKLAMVSFRKNEAFVNLPVTSSIELAARMLKEMPVGGRTPFSAGLLKGYEIAQNYLRKEPGGRPLIILVTDGKANRAIGQGKPLDEVFTISEKISREERIRFLVVDTEEPGLVTFGLAKKIAGLLDAWYYRIDDLRADTLVSIVKTMMP | not soluble
5 | MGATEVGDENAGTVSAQPCSRQCCLEDFWALLRRHPAPEPPPWTPVLYPLRTSLPSTLAVFLNLGLSFPKTSITSSWRDWTLHLPFAWSLSVRGPSQCVHVRGGGDHIRRRGG | not soluble
6 | MGATMKPSNKESVQDTVARLRENRNQQQSKVGKNATHSSKEQTPLDTPTRSKASKNAKAVSAAERKTEANKIIKHLLLGELTQGQALKSLRINILGLKQDVFARLVDVSRKTLSDIENDRGSYNTEILNKVFKPFSLKIGLLPSSPDALKSLLMDGEDG | soluble
7 | MGCSSSALNKAGDSSRFPSVTSNEHFSTAEESESCFAQPKPHALGRESTVDGNVQRESRPPLQKLKVSAEPTANGVKPLQEQPLAKDVAPGRDATDQSGSTEKTQPGEGLEESGPPQPGGKEDAPAAEGKKKDAGAGTEAESLKGNAEAQPLGPEAKGQPLQAAVEKDSLRAVEVTENPQTAAEMKPLGTTENVLTLQIAGELQPQGTVGKDEQAPLLETISKENESPEILEGSQFVETAEEQQLQATLGKEEQPQLLERIPKENVTPEVLDRSQLVEKPVMNDPFHKTPEGPGNMEQIQPEGIVGSMEHPARNVEAGAYVEMIRNIHTNEEDQRIEGETGEKVETDMENEKVSEGAETKEEETGEVVDLSAAT | soluble
8 | MGDICETVEATFHGVAYLLTVSTIEGETLCVEVEQKSDCSRWRGDFTSRYIEDITAKTGNFKKFPVFVKMLLSALKQASDSVFVDLLTYQDLEVLKSRKAGGQAPPPRTQPPNNKRYLIMTYAAEFDRVHYPLPLLFEENPDPQHLKRIISQLRSEVEGLQVEAGNRRGGEVSAELRRLREENAALQRQLKQMERSGSGVGAGAESSEARELARELRTVRKERDLLQARVEAAEAELERERGLHRRELRRRAKEQQELVDELGRCKEQIRELKMRIRQLTEDLEARDRRMNSTDRIRSVYARGSNDGSTSGVAPRRPSSGGRGPSSNYMAPTRGADSRSNSRGRGTSSAERSRPNSAPIGGPRPRFDPTEYVRQRKERESAAVGGRRSNAPTPPRSAGTSRASSVVGSRPASAERLPPIRTASPTNSRPSSTERYRPGSGGPPGRTSAGGSRGAADRAGARGPDPYAPRSRGASPSGRATAWGEPGASGGGAGGWSKFPGGGGGGVGGSGQRISSNSPRSMSPARALAEVKQKLSTFVAGRGGSLQGDDASSAHGEHMSQSSKSQVFEDATAEIADIDSRLHALQDFLRMAKTSSTSTSTTQA | not soluble
9 | MGDTDRKLFVLDTNILLHEPFAIFSFQEHDVVIPMTVLEELDRIKDSKRDVARDARVAIRALEDLFKDATPDEISEGIPVSKEKPDQGSISILADFELQETVKAFADKAGDNRILNAVLYLQNKRAPREVVLITKDINMRLRAKGAGVRFVEDYRTDQLIDDIQYLTKGFQQREGDFWSGIDEVESYALGGKTYHKLSREPFDPTFINQYVIDEDSDFAGRVETINEDKLTLLDLSRERMMHRRAWDITPKNIYQAMALDALLDPDIDLVILTGAAGSGKTLLAMAAALEQTIEKGMFDKIIVTRNTPDIGESIGFLPGSEEEKMMPWLAAVTDTLEALHKHDHCTEGSLKYICDKANIQFKSINFMRGRSIQNAFVLLDECQNLTASQIKTIITRCGEGTKIVCSGNLAQIDSHYLTPVTSGLTYMVERFKNFEGSANIHLNGVVRSRLAEFAEENL | soluble
10 | MGDVVADALEKLSADQIEQFRKYFNMFDKEGKGYIRATQVGQILRTMGQAFEERDLKQLIKEFDADGSGEIEFEEFAAMVANFVVNNENDEGLEEELREAFRLYDKEGNGYINVSDLRDILRALDDNVSEEELDEMIAEIDADGSGTVDFDEFMEMMSGE | soluble
11 | MGDVVEMTSELGFKYSILASGSTGNSFYLETPEKKILVDAGLSGKKITSLLAEIDRDPSDLDAILVTHEHKDHIHGVGVLARKYGMDIYANEKTWQIMDSKNMLGKVDNSQKHIFSRGKLLTFGDIDIESFGVSHDAINPQFYRFMKDGKSFVMLTDTGYVSDRMAGLIENADGYLIESNHDIEILRAGSYPWSTKQRILSDQGHLCNEDGADAMIRTIGNKTKKIYLGHLSKENNIKELAYMTMENQLARADFGVGTDFKIFVTSPDTATPLTDILEHHHHHH | not soluble
12 | MGEEKKKRTVEITIGGKLRSFDIDDPVLPDWVEEKKLSAGNFPYDKKMKREDYDATLEALQVELVKVQFWLQATGKRVMAVFEGRDAAGKGGAIFATHAYLNPRYARVVALTKPTETERGQWYFQRYISHFPTAGEFVLFDRSWYNRAGVEPVMGFCTPDEHKRFLKETPRLEKMLVHDDIHLFKFWLDIGRETQIERFHDRRQSPLKCWKLSDMDIAALTKWDDYTQKRDEMLEKTHTDAAPWTVVRANDKRRARVNLIRHILLALDYEGKDRQAIGEIDDKILGSGPDFLK | not soluble
13 | MGELIEGVWHPNWYDTASNGGRFVRSRARFRNWITADGSPGPSGEGGFPAEAGRYHLYVAHACPWAHRTMIFRALKDLAPLIDVSVVHPEMLEDGWTFDRSFPGATGDRLYGLAFLREIYLKADPGISARVTVPVLWDRKRETIVSNESAEIIRMFNAAFDHLTGNRVDFLPEGDLAEIDRLNDRIYGTVNNGVYRAGFATTQEAYDEAAAPLFETLDWLEERLATRRYLVGDRLTEADWRLFTTLVRFDKVYHTHFKCNRRQIVQYPNLWGWLRELWQVPGVAETVHFDHIVRHYYFSHDTINPHRIVPLTPDPDFAAPHGRDQLFQASRLR | not soluble
14 | MGEPVILEAVRTPIGKRNGALRAYRPDALYAKVLDALLERTGIDPGLIGDVVTGCVTQVGEQGANVGRLGVLLSRLPKEVPAVSLNRMCGSSQQAVHFAAQAIAAGDVDFAIAGGVESMTRVPMFADIGGGFHTLNPELGKRYELVHQGESAERIAERYGFCREELDEWGYLSHKRAARATEEGRFSAQILPLEGLDAEGRPFLLTRDEGVRPDVDYEKMLALKPVFREDGVVTAGNSSQISDGAAALLLGDREKALALGLRPRARFLARVVVAGDPTLQLLEVIPAAKKALERAGLSLRDVDVIEVNEAFASVVLAFLRELGADPEKVNPNGGAIAHGHPLGATGAVLMTKLLYELERTGSEFGLQVMCIGHGQATATVIQRL | soluble
15 | MGEQQLDCALDLMRRLPPQHCDKNLTDLIDLCPHLVDDLLSTIDQPLKIAADRETGKQYLLCDYNRDGDSYRSPWSNTYDPPLEDGQLPSEKRRKMEIEANAAFESYRDLYFEGGVSSVYFWDLDNGGFAGIVLIKKEGDGAKNITGCWDSIHVIEITERARQAHYKLTSTIMLWLQTNKSSSGVMNLGGSLTRQHEMDAPINDQNTHLANMGRMIEDQESKMRLTINEIYFGKTKKVMSDLRSTEKQSELEKQDEIVRELNNAMANRGN | soluble
16 | MGESIPLAAPVPVEQAVLETFFSHLGIFSYDKAKDNVEKEREADKSAGGSWLSLLAALAHLAAAEKVYHSLTYLGQKLGGQSFFSRKDSIRTIYTSLHNELKKVVTGRGALGGTAPHVEELLSHLSEQLCFFVQARMEIADFYEKMYTLSTQKFINAEELVGLLDAIMKKYSSRFHHPILSPLESSFQLEVDVLCHLLKAQAQVSEWKFLPSLVNLHSAHTKLQTWGQIFEKQRETKKHLFGGQSQKAVQPPHLFLWLMKLKNMLLAKFSFYFHEALSRQTTASEMKTLTAKANPDFFGKISSFIRKYDAANVSLIFDNRGSESSQGHGYHHPHSYREAPKGVDQYPAVVSLPSDRPVMHWPNVIMIMTDRTSDLNSLEKVVHFYDDKVQSTYFLTRPEPHFTIVIIFESKKSERDSHFISFLNEVSLALKNPKVFASLKPGSKGSCYQCNYFVAFCLDYSKLLLQRK | not soluble
17 | MGFLPISLLHLVIKLLKNSLRKSSRELKDNFYDEPYIVLSELRELKTYFSILSAIAAGKRKPSEMANEVDLEGRKIHSYIETLIRLGFVERDLLVARKEKRWLYIISDPMLMSWFSLVYPKRTEIEIGAMTIDDVKEILQRIFSFRFEQVSREFLIELNRKGNLPFRFTKIGRWWHKEEEIDIVALNEKEKKSLLIEIKWKELKEREIKGILNDLELEGWDKIYGVIAKKVQKKENLWERGFLIWDLEDLDVLAAALEHHHHHH | not soluble
18 | MGGKMEKITCVGHTALDYIFNVEKFPEPNTSIQIPSARKYYGGAAANTAVGIKKLGVNSELLSCVGYDFKNSGYERYLKNLDINISKLYYSEEEETPKAWIFTDKDNNQITFFLWGAAKHYKELNPPNFNTEIVHIATGDPEFNLKCAKKAYGNNLVSFDPGQDLPQYSKEMLLEIIEHTNFLFMNKHEFERASNLLNFEIDDYLERVDALIVTKGSKGSVIYTKDKKIEIPCIKAGKVIDPTGAGDSYRAGFLSAYVKGYDLEKCGLIGAATASFVVEAKGCQTNLPTWDKVVERLEKHRI | soluble
19 | MGGLFVTPAKAVKTTNYAEEIAALQPGTTPEEIMKSASQIAKQQHVKQDVILKQFYKEITADKAEGDRLAKESGMSIMGGSSGTKKLPTSAKGNIYYTNSYTAYYNHGHVGMYSAADKIVESVPSDGVRQIAYNARDVEDNSIVQTVSVSSSQKTAAADWAVSKVGDPYSFNFVNNRNTGHDGAKNCSKLLWSAFLLKAGIDIDSNGGLGVYPRDITSSSYTTTIMTIYLEHHHHHH | not soluble
20 | MGGLVSRCEAFSSSAEQKLSQGRNTSMDEKTTQTKPSRRPWFWKRIERTELPNPGSYEDINQEASAVLRPNLFDGFRFDFNYPLSAMFSMGHSIEMGSLQKPPGYAFSANYLSNHLVMLSRVDLSGHVNGRVFINHSPFLTSKIVAETSSQPNESKATWDLDYRGSDFCGQLKFGNMGIVALSYLQSVTPNLSLGGEGFYQGATGFSAITAAGRYVTHDGVATCTIASFGPLVASYCHRVNPRVTLATEFFWDLRSRDSLVTIGYKFDLRQATVTGQIDTNGRVAALLEEKINPGLSFLLSGEIDHSRQEYKFGFGVTIGQ | soluble
